T1: FcγRIIa type R (human, UniProt P12318 36-217)
T1 construct: also called FcγRIIaR; FcgRIIaR
T1 chain: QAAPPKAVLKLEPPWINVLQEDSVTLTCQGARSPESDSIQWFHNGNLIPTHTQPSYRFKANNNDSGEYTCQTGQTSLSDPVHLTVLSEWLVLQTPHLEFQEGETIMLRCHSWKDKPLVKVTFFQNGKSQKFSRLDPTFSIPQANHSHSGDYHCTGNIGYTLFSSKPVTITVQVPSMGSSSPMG

T2: FcγRIIa type H (human, UniProt P12318 36-217)
T2 construct: also called FcγRIIaH; FcγRIIH
T2 sequence: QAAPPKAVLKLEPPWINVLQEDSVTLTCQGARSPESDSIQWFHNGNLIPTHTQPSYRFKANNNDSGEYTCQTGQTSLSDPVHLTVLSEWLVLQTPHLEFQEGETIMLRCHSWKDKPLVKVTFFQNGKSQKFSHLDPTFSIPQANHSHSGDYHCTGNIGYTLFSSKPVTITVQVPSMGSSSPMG

T3: FcγRIIb (human, UniProt P31994 43-217, limits assumed)
T3 construct: also called FcgRIIb; FcγIIB
T3 sequence: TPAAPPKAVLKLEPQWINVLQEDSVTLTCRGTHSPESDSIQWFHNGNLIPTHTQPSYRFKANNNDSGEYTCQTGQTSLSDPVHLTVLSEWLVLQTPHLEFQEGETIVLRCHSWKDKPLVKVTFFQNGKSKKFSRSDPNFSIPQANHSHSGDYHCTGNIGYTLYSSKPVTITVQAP


Assays:
FcγRIIa type R = target: T1, FcγRIIa type R; test: SPR (Biacore), FcγR over captured antibody
FcγRIIa type H [1] = target: T2, FcγRIIa type H; test: SPR (Biacore), FcγR over captured antibody
FcγRIIIa type V [2] = target: T4, FcγRIIIa type V (human, UniProt P08637 17-208, limits assumed); test: SPR (Biacore), FcγR over captured antibody
T4 construct: also called FcγRIIIaV; FcgRIIIaV

FcγRIIb [3] = target: T3, FcγRIIb; test: SPR (Biacore), FcγR over captured antibody
FcγRIa [4] = target: T5, FcγRIa (human, UniProt P12314 16-292, limits assumed); test: SPR (Biacore), FcγR over captured antibody
T5 construct: also called FcgRIa; CD64

FcγRIIa type H [5] = target: T2, FcγRIIa type H; test: SPR (Biacore), bound amount, IL6R-BF648/IL6R-L = 100
Protocol: (§1) According to the following method, relative binding activities were calculated for the results of analyzing interactions with the respective FcγRs.

FcγRIIIa type V [6] = target: T4, FcγRIIIa type V; test: as above
Protocol: as §1

FcγRIIb [7] = target: T3, FcγRIIb; test: as above
Protocol: as §1

FcγRIa [8] = target: T5, FcγRIa; test: as above
Protocol: as §1

FcγRIIb [9] = target: T3, FcγRIIb; test: SPR (Biacore); KD for FcγRIIaH divided by KD for FcγRIIb of the same antibody
Description: Furthermore, KD(IIaR)/KD(IIb) and KD(IIaH)/KD(IIb) in the table respectively represent the value obtained by dividing the KD value of each variant for FcγRIIaR by the KD value of each variant for FcγRIIb, and the value obtained by dividing the KD value of each variant for FcγRIIaH by the KD value of each variant for FcγRIIb.

FcγRIIb [10] = target: T3, FcγRIIb; test: SPR (Biacore); KD for FcγRIIaR divided by KD for FcγRIIb of the same antibody
FcγRIIb [11] = target: T3, FcγRIIb; test: SPR (Biacore), KD of IL6R-B3/IL6R-L divided by KD of the variant
Description: Furthermore, KD(IIaR)/KD(IIb) and KD(IIaH)/KD(IIb) in the table respectively represent the value obtained by dividing the KD value of each variant for FcγRIIaR by the KD value of each variant for FcγRIIb, and the value obtained by dividing the KD value of each variant for FcγRIIaH by the KD value of each variant for FcγRIIb. KD(IIb) of the parent polypeptide/KD(IIb) of the altered polypeptide refers to the value obtained by dividing the KD value of the parent polypeptide for FcγRIIb by the KD value of each variant for FcγRIIb.

T4 sequence (P08637 other isoform, or with tags, fused parts or gaps limits assumed): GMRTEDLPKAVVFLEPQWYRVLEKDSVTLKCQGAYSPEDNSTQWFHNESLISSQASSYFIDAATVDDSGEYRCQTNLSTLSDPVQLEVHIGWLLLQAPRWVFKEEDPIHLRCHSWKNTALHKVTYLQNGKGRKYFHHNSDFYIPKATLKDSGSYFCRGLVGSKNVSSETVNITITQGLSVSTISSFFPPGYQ
T5 sequence (P12314 16-292 limits assumed): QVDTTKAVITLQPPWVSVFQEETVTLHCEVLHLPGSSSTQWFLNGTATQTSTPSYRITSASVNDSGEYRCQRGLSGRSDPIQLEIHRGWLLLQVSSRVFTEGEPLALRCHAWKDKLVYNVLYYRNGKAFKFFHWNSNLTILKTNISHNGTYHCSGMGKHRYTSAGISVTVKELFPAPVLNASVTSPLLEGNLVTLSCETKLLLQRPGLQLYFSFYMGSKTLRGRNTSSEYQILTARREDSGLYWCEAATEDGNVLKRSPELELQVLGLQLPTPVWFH

Binder	Kd (FcγRIIa type R) [nM]	Kd (FcγRIIa type H [1]) [nM]	Kd (FcγRIIIa type V [2]) [nM]	Kd (FcγRIIb [3]) [nM]	Kd (FcγRIa [4]) [nM]	relative binding activity (FcγRIIa type H [5])	relative binding activity (FcγRIIIa type V [6])	relative binding activity (FcγRIIb [7])	relative binding activity (FcγRIa [8])	KD(IIaH)/KD(IIb) (FcγRIIb [9])	KD(IIaR)/KD(IIb) (FcγRIIb [10])	KD(IIb) of the parent polypeptide/KD(IIb) of altered polypeptide (FcγRIIb [11]) [fold]
IL6R-B3/IL6R-L (antibody, human IgG1, IgG1; IL6R-G1d with K439E (EU); also called parent polypeptide; copies: 2 + 2) heavy: not shown light: DIQMTQSPSSLSASVGDRVTITCRASQDISSYLNWYQQKPGKAPKLLIYYTSRLHSGVPSRFSGSGSGTDFTFTISSLQPEDIATYYCQQGNTLPYTFGQGTKVEIK	1100	770	330	3100	0.42	1600 % of control	3260 % of control	58 % of control	145 % of control	0.2	0.3	1
IL6R-BF648/IL6R-L (antibody, human IgG1, IgG1; Fc variant of IL6R-B3; control (= 100) of the relative values; copies: 2 + 2) heavy: not shown light: DIQMTQSPSSLSASVGDRVTITCRASQDISSYLNWYQQKPGKAPKLLIYYTSRLHSGVPSRFSGSGSGTDFTFTISSLQPEDIATYYCQQGNTLPYTFGQGTKVEIK	15000	40000	71000	1200	11	100 % of control	100 % of control	100 % of control	100 % of control	33.9	13	2.6
IL6R-G1d/IL6R-L (antibody, human IgG1, IgG1 (G1d constant region) antibody to human IL-6 receptor; also called IgG1 (IL6R-G1d); copies: 2 + 2) heavy: not shown light: DIQMTQSPSSLSASVGDRVTITCRASQDISSYLNWYQQKPGKAPKLLIYYTSRLHSGVPSRFSGSGSGTDFTFTISSLQPEDIATYYCQQGNTLPYTFGQGTKVEIK	1000	670	350	2600	0.32	1670 % of control	3350 % of control	62 % of control	140 % of control	0.3	0.4	1.2
